Laboratory results as given in patent EP1662255A2 (THE JOHNS HOPKINS UNIVERSITY SCHOOL OF MEDICINE, dated 2006).
One block for each binder: values may come before it.

B1: GRIP PDZ 4-6 (GST fusion) (other, UniProt P97879 471-754, looked up)
chain: EVVLTADPVTGFGIQLQGSVFATETLSSPPLISYIEADSPAERCGVLQIGDRVMAINGIPTEDSTFEEANQLLRDSSITSKVTLEIEFDVAESVIPSSGTFHVKLPKKHSVELGITISSPSSRKPGDPLVISDIKKGSVAHRTGTLELGDKLLAIDNIRLDSCSMEDAVQILQQCEDLVKLKIRKDEDNSDEQESSGAIIYTVELKRYGGPLGITISGTEEPFDPIIISSLTKGGLAERTGAIHIGDRILAINSSSLKGKPLSEAIHLLQMAGETVTLKIKKQT
notes: domain: PDZ 4-6; also called PDZ domains of GRIP; not shown: glutathione S-transferase fusion partner
B4: SAP102 PDZ1-3 (GST fusion) (other, UniProt Q62936 149-484, looked up)
chain: EIVLERGNSGLGFSIAGGIDNPHVPDDPGIFITKIIPGGAAAMDGRLGVNDCVLRVNEVDVSEVVHSRAVEALKEAGPVVRLVVRRRQPPPETIMEVNLLKGPKGLGFSIAGGIGNQHIPGDNSIYITKIIEGGAAQKDGRLQIGDRLLAVNNTNLQDVRHEEAVASLKNTSDMVYLKVAKPGSLHLNDMYAPPDYASTFTALADNHISHNSSLGYLGAVESKVTYPAPPQVPPTRYSPIPRHMLAEEDFTREPRKIILHKGSTGLGFNIVGGEDGEGIFVSFILAGGPADLSGELRRGDRILSVNGVNLRNATHEQAAAALKRAGQSVTIVAQYR
notes: domain: PDZ 1-3; also called SAP102 PDZI-3; not shown: glutathione S-transferase fusion partner

Assays:
[1] = biological target: T1, carboxy-terminal 347 amino acids of GKAP-3 (amino-terminal myc tag) (rat, UniProt P97838 631-977); experiment: GST pulldown from HEK293 lysate
T1 construct: domain: carboxy-terminal 347 amino acids; also called GKAP-3/SAPAP3 carboxy-terminus
T1 sequence (looked up): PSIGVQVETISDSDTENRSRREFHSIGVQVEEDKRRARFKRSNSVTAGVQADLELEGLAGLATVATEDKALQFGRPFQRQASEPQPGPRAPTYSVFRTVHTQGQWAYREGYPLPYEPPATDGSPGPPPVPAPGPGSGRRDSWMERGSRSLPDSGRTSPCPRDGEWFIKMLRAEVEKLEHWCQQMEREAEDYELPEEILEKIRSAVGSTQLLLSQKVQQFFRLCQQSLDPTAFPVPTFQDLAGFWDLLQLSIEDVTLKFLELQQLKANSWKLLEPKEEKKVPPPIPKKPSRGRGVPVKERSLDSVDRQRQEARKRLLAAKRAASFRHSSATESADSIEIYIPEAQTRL

[2] = biological target: B1; experiment: GST pulldown from extracts of heterologous cells
[3] = biological target: B4; experiment: GST pulldown from extracts of heterologous cells
[4] = biological target: T2, GKAP1 (native, rat brain extracts) (rat, UniProt P97836 1-992); experiment: GST pull-down from rat brain extracts
T2 construct: mature
T2 sequence (looked up): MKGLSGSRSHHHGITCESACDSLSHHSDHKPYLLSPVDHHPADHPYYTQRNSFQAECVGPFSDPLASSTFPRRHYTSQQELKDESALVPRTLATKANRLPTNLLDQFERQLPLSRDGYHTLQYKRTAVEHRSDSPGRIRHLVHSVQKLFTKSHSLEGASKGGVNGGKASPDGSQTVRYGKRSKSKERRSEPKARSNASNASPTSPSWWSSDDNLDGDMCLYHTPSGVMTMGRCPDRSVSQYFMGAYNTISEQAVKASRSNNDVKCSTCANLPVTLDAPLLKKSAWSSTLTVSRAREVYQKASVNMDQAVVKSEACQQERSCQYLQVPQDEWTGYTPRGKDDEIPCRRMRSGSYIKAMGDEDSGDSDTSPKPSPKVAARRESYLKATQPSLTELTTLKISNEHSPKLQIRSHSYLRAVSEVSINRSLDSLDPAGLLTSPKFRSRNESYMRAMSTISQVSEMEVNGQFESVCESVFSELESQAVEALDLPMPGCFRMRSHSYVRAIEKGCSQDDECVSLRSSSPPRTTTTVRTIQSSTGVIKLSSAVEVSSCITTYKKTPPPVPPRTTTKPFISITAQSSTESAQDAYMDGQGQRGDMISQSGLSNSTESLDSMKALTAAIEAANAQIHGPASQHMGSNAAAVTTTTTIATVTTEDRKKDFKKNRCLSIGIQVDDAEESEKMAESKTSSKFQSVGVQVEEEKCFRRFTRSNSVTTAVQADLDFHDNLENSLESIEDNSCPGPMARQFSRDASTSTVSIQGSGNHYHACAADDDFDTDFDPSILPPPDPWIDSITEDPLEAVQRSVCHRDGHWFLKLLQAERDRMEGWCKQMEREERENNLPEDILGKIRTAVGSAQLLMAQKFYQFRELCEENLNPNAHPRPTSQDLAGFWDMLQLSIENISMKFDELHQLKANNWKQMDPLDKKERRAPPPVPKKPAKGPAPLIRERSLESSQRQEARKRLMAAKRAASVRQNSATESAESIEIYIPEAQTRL

Binder: B1
binding result [1]: no binding

binding result [2]: no binding
binding result [3]: no binding
B2: recombinant mGluR5 carboxy-terminal 241 amino acid peptide (receptor, UniProt P31424 963-1203, looked up)
chain: AAGGGSGPGVAGAGNAGCTATGGPEPPDAGPKALYDVAEAEESFPAAARPRSPSPISTLSHLAGSAGRTDDDAPSLHSETAARSSSSQGSLMEQISSVVTRFTANISELNSMMLSTAATPGPPGTPICSSYLIPKEIQLPTTMTTFAEIQPLPAIEVTGGAQGATGVSPAQETPTGAESAPGKPDLEELVALTPPSPFRDSVDSGSTTPNSPVSESALCIPSSPKYDTLIIRDYTQSSSSL
notes: domain: carboxy-terminal 241 amino acids; Expressed in heterologous cells for GST pulldown; also called mGluR5 carboxy-terminal tail; mGluR5 C-terminal tail

binding result [4]: no binding
B3: GST-GKAP(carboxy-terminal) (other, UniProt P97836-5 591-666, looked up)
chain: MDPLDKKERRAPPPVPKKPAKGPAPLIRERSLESSQRQEARKRLMAAKRAASVRQNSATESAESIEIYIPEAQTRL
notes: domain: carboxy-terminal 76 amino acids; also called carboxy-terminal 76 amino acids of GKAP1a fused to GST; not shown: glutathione S-transferase fusion partner

Binder: B4
binding result [1]: no binding
